Assay results as given in the supplement of paper PMC10724198.
± gives the standard deviation of the averaged measurements.

Tests used:
[1] = test system: Saccharomyces cerevisiae; experiment: protein stability index of tFT-peptide fusion (C-terminal peptide) (PSI (0-1 scale)); higher = more stable (slower turnover); conditions: genetic background: wild type; temperature: 30 C
[2] = test system: Saccharomyces cerevisiae; experiment: as above
Protocol: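 MPS profiling in S. cerevisiae of the tFT-X12 degron library: putative degron peptides plus stable controls, 12 aa, fused to the C-terminus of a sfGFP-mCherry timer. Cells are FACS-sorted into 8 mCherry/sfGFP bins and deep-sequenced. PSI runs from 0 (unstable) to 1 (stable). Backgrounds are wild type, das1Δ and doa10Δ at 30 °C, and wild type, das1Δ, cdc34-1 and cdc53-1 at 37 °C; 2-3 technical replicates each.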

[3] = genetic background: cdc34-1, temperature: 37 C
[4] = genetic background: cdc53-1, temperature: 37 C
[5] = genetic background: das1 deletion, temperature: 30 C
[6] = genetic background: das1 deletion, temperature: 37 C
[7] = genetic background: doa10 deletion, temperature: 30 C
[8] = genetic background: wild type, temperature: 30 C
[9] = genetic background: wild type, temperature: 37 C
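Further: PSI is a weighted mean of sequencing reads over stability bins, variants kept only with over 10 reads, mCherry proximal and sfGFP distal, peptide attached via GGGS linker.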

Row | Sequence | protein stability index [1] | protein stability index [2, 3] | protein stability index [2, 4] | protein stability index [2, 5] | protein stability index [2, 6] | protein stability index [2, 7] | protein stability index [2, 8] | protein stability index [2, 9]
1 | WKNIHGVFVFVM | 0.403 ± 0.012 | 0.5472 ± 0.001 | 0.48 ± 0.014 | 0.389 ± 0.028 | 0.5696 ± 0.0012 | 0.25 ± 0.0047 | 0.284 ± 0.03 | 0.445 ± 0.0072
2 | DFVFFLVSVRFR | 0.284 ± 0.081 | 0.103 ± 0.039 | 0.216 ± 0.059 | 0.177 ± 0.037 | 0.32 ± 0.017 | 0.15 ± 0.013 | 0.178 ± 0.03 | 0.284 ± 0.0058
3 | GWRFCVFIYVHR | 0.179 ± 0.042 | 0.0703 ± 0.011 | 0.0688 ± 0.0038 | 0.115 ± 0.033 | 0.196 ± 0.012 | 0.213 ± 0.018 | 0.107 ± 0.015 | 0.186 ± 0.0085
4 | CFFILSLMVVVI | 0.194 ± 0.054 | 0.0733 ± 0.0068 | 0.16 ± 0.027 | 0.12 ± 0.029 | 0.229 ± 0.0071 | 0.0944 ± 0.0056 | 0.0999 ± 0.03 | 0.183 ± 0.0091
5 | RYLHFASLLFAS | 0.364 ± 0.014 | 0.658 ± 0.019 | 0.709 ± 0.0084 | 0.585 ± 0.012 | 0.729 ± 0.0093 | 0.179 ± 0.006 | 0.226 ± 0.035 | 0.52 ± 0.016
6 | FLSRVVLVVLLV | 0.288 ± 0.026 | 0.258 ± 0.018 | 0.333 ± 0.006 | 0.245 ± 0.029 | 0.43 ± 0.02 | 0.196 ± 0.015 | 0.215 ± 0.034 | 0.339 ± 0.029
7 | WSLPPLLSPLYF | 0.667 ± 0.34 | 0.717 ± 0.035 | 0.753 ± 0.019 | 0.67 ± 0.016 | 0.758 ± 0.02 | 0.676 ± 0.024 | 0.672 ± 0.012 | 0.7198 ± 0.0018
8 | KNVFLIRGRKNC | 0.356 ± 0.098 | 0.627 ± 0.054 | 0.689 ± 0.0093 | 0.638 ± 0.029 | 0.721 ± 0.018 | 0.154 ± 0.021 | 0.193 ± 0.014 | 0.41 ± 0.017
9 | CFVSFLHLLYFS | 0.362 ± 0.015 | 0.347 ± 0.044 | 0.341 ± 0.025 | 0.35 ± 0.025 | 0.4666 ± 8.3e-05 | 0.506 ± 0.0063 | 0.296 ± 0.024 | 0.425 ± 0.0054
10 | RTMLSNRIKSFI | 0.415 ± 0.014 | 0.6235 ± 0.0026 | 0.701 ± 0.038 | 0.642 ± 0.014 | 0.723 ± 0.02 | 0.239 ± 0.0068 | 0.244 ± 0.021 | 0.519 ± 0.025
